The values that follow come from patent publication US10689429B2, “Double-acylated GLP-1 compounds” (Novo Nordisk A/S, priority 2014, dated 2020).

The target in data set [1] is T1, human GLP-1 receptor (Homo sapiens, UniProt P43220).
T1 construct: expressed in transfected cells; host or cells: membranes from BHK cells, parent line BHKTS13, clone FCW467-12A
The data set is described as follows: In vitro potency, CRE luciferase reporter gene assay in BHK cells expressing the human GLP-1 receptor.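 Note: firefly luciferase luminescence read after 3 h incubation at 37 °C, compounds tested in an eight-point series from 0.01 pM to 100 nM.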 It is filed as cell-based. As to conditions: average of duplicates. (In general: In a reporter assay the amount or activity of a reporter protein is the signal.)
Target sequence in this assay (P43220 24-463): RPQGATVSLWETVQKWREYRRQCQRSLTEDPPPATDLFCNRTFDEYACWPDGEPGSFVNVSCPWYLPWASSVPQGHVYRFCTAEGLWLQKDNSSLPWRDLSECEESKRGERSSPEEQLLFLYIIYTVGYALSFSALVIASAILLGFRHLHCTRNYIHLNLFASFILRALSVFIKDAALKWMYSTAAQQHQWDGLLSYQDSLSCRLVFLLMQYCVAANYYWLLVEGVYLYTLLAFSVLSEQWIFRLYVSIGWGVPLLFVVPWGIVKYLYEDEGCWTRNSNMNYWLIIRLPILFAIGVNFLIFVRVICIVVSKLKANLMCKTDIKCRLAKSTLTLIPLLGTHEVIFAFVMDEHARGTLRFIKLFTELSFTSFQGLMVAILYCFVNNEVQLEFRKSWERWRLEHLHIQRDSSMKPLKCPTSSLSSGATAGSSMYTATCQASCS
Method: The in vitro potency is the measure of human GLP-1 receptor activation in a whole cell assay.
In vitro potency was determined by measuring the response of the human GLP-1 receptor in a reporter gene assay. The assay was performed in a stably transfected BHK cell line that expresses the human GLP-1 receptor and contains the DNA for the cAMP response element (CRE) coupled to a promoter and the gene for firefly luciferase (CRE luciferase). When the human GLP-1 receptor is activated it results in the production of cAMP, which in turn results in the luciferase protein being expressed. When assay incubation is completed the luciferase substrate (luciferin) is added and the enzyme converts luciferin to oxyluciferin to produce bioluminescence. The luminescence is measured as the readout for the assay.
An increase of the in vitro potency, EC50 value, in the presence of serum albumin would indicate an affinity to serum albumin and represents a method to predict a protracted pharmacokinetic profile of the test substance in animal models.
The cells were cultured at 5% CO2 in Cell Culture Medium. They were aliquoted and stored in liquid nitrogen. Before each assay an aliquot is taken up and washed twice in PBS before being suspended at the desired concentration in the assay specific buffer. For 96-well plates the suspension was made to give a final concentration of 5×10^3 cells/well.
Assay Medium consisted of DMEM w/o phenol red, 10 mM Hepes and 1× Glutamax. The 1% Assay Buffer consisted of 2% ovalbumin, 0.2% Pluronic F-68 and 2% HSA in Assay Medium. The 0% Assay Buffer consisted of 2% ovalbumin and 0.2% Pluronic F-68 in Assay Medium.
1) Cell stocks were thawed in a 37° C. water bath.
2) Cells were washed three times in PBS.
3) The cells were counted and adjusted to 5×10^3 cells/50 μl (1×10^5 cells/ml) in Assay Medium. A 50 μl aliquot of cells was transferred to each well in the assay plate.
4) Stocks of the test compounds and reference compounds were diluted to a concentration of 0.2 pM in 0% Assay Buffer for the 0% HSA CRE luciferase assay and 1% Assay Buffer for the 1% HSA CRE luciferase assay. […] Compounds were tested at the following final concentrations: 1×10^−7 M, 1×10^−8 M; 1×10^−9 M, 1×10^−10 M, 1×10^−11 M, 1×10^−12 M, 1×10^−13 M, and 1×10^−14 M. 6) The assay plate was incubated for 3 h in a 5% CO2 incubator at 37° C. […] 8) A 100 μl aliquot of steadylite plus reagent was added to each well of the assay plate (reagent was light sensitive). 9) Each assay plate was covered with aluminum foil to protect it from light and shaken for 30 min at room temperature. 10) Each assay plate was read in a Packard TopCount NXT instrument. Calculations and Results
The data from the TopCount instrument were transferred to GraphPad Prism software. The software performs a non-linear regression (log(agonist) vs response).
A minimum of two replicates was measured for each sample on separate assay plates. The reported values are averages of the duplicates. For some examples more than one assay was run and in this case the data reported are the averages of the averaged duplicates.

Data set [2] addresses T1, human GLP-1 receptor. As to the kind of experiment: GLP-1 receptor binding, competitive 125I-GLP-1 SPA binding assay on isolated membranes. The following applies: low HSA (max. 0.001% final assay concentration).
Data set [3] in a line: Pharmacokinetic study in mini pigs after i.v. administration. The following applies: female, Göttingen, pig, plasma, iv, 2 nmol/kg; read-out: Minipig iv PK, t½ (converted). It is filed as in vivo.
Method: The purpose of this study is to determine the protraction in vivo of the GLP-1 derivatives after i.v. administration to mini pigs, i.e. the prolongation of their time in the body and thereby their time of action. This was done in pharmacokinetic (PK) studies, where the terminal half-life of the derivative in question was determined. By terminal half-life is generally meant the period of time it takes to halve a certain plasma concentration, measured after the initial distribution phase.
Female Göttingen mini pigs obtained from Ellegaard Göttingen Minipigs (Dalmose, Denmark) at approximately 5 months of age and weighing approximately 10 kg were used in the studies. The mini pigs were housed in pens with straw as bedding, four to six together in each pen and fed restrictedly once or twice daily with Altromin 9023 mini pig diet (Chr. Petersen A/S, DK-4100 Ringsted). The pigs were used for repeated pharmacokinetic studies with a suitable wash-out period between successive GLP-1 derivative dosings. An acclimatisation period of 1 week was allowed during which time the mini pigs were trained to be fixated on the back for blood sampling and in slings for i.v. dosing. All handling, dosing and blood sampling of the animals was performed by trained and skilled staff.
The GLP-1 derivatives were dissolved in 50 mM sodium phosphate, 70 mM sodium chloride, 0.05% tween 80, pH 7.4 to a concentration of approximately 20 nmol/ml. Intravenous injections (the volume corresponding to usually 2 nmol/kg, for example 0.1 ml/kg) of the compounds were given as intravenous injections via a Venflon inserted in an ear vein, while the animals were placed un-anaesthetised in a sling. The dose volume was 0.1 ml/kg, and blood was sampled at predefined time points for up till 13 days post dosing (samples were taken with a syringe from a jugular vein). Blood samples (for example 0.8 ml) were collected in EDTA buffer (8 mM) and then centrifuged at 4° C. and 2000 G for 10 minutes.
Individual plasma concentration-time profiles were analysed by a non-compartmental model in WinNonlin v. […] 6.2 or 6.3 (Pharsight Inc., Mountain View, Calif., USA), or other relevant software for PK analysis, and the resulting terminal half-lives determined.
Data set [4] has as its target T2, human GLP-1 receptor (human, UniProt P43220).
Target sequence in this assay (P43220 24-463): as above
Data set [5] addresses T2, human GLP-1 receptor. As to the kind of experiment: displacement of [125I]-GLP-1-(7-36)NH2 from membranes with human GLP-1 receptor, SPA, high HSA (2.0%). (In a radioligand displacement assay an active substance lowers the binding of a labelled ligand.)
Method: Each derivative is added in a series of concentrations to isolated membranes containing the human GLP-1 receptor and displacement of the labelled ligand is monitored. The receptor binding is reported as the concentration at which half of the labelled ligand is displaced from the receptor, the $IC50$ value.
For the receptor binding assay in the presence of low HSA (0.001%) 50 μl of the assay buffer was added to each well of an assay plate. […] For the receptor binding assay in the presence of high HSA (2.0%) 50 μl of the 8% albumin stock was added to each well of an assay plate. […] Cell membrane aliquots were thawed and diluted to their working concentration. Fifty μl were added to each well in the assay plate. […] WGA SPA beads were suspended in assay buffer at 20 mg/ml. The suspension was diluted to 10 mg/ml in assay buffer just prior to addition to the assay plate. Fifty μl were added to each well in the assay plate. […] A 25 μl aliquot was reserved for measuring total counts/well. […] The assay plate was incubated for 2 h at 30° C. […] The assay plate was centrifuged for 10 min. […] The assay plate was read in a Packard TopCount NXT instrument.
Where [6] appears, read: EC50/pM (1% HSA), 1% HSA final assay concentration.

Read-outs that look alike come from different tables or passages of the source. *1 amine or outer side, *2 acyl side, *3 side chain or, on linkers, in order; H or OH if unused. Where no end group is shown, it is not given here. Side-chain parts run from the residue outwards. [ ]: non-standard residue; d: D form. The star is where a group is joined. Dodecanoyl(12-OPh(4-COOH)) = O=C(O)c1ccc(OCCCCCCCCCCCC(=O)*)cc1; 9‑(3-carboxyphenoxy)nonanoyl = O=C(O)c1cccc(OCCCCCCCCC(=O)*)c1; Undecanoyl(11-OPh(4-COOH)) = O=C(O)c1ccc(OCCCCCCCCCCC(=O)*)cc1; Decanoyl(10-(4-HOOC-PhO)) = O=C(O)c1ccc(OCCCCCCCCCC(=O)*)cc1; Decanoyl(10-O(3-COOH-Ph)) = O=C(O)c1cccc(OCCCCCCCCCC(=O)*)c1; γGlu = O=C(O)[C@H](CCC(=O)[*:2])N[*:1]; C14 diacid = O=C(O)CCCCCCCCCCCCC(=O)*; AEEA = NCCOCCOCC(=O)O; Aib = CC(C)(N)C(=O)O

With `CC[C@H](C)[C@H](NC(=O)[C@H](Cc1ccccc1)NC(=O)[C@H](CCC(=O)O)NC(=O)[C@H](CCCNC(=N)N)NC(=O)[C@H](C)NC(=O)[C@H](C)NC(=O)[C@H](CCC(N)=O)NC(=O)[C@H](CCC(=O)O)NC(=O)[C@H](CCC(=O)O)NC(=O)[C@H](CC(C)C)NC(=O)[C@H](Cc1ccc(O)cc1)NC(=O)[C@H](CO)NC(=O)[C@H](CO)NC(=O)[C@@H](NC(=O)[C@H](CC(=O)O)NC(=O)[C@H](CO)NC(=O)[C@@H](NC(=O)[C@H](Cc1ccccc1)NC(=O)[C@@H](NC(=O)CNC(=O)[C@H](CCC(=O)O)NC(=O)C(C)(C)NC(=O)[C@@H](N)Cc1c[nH]cn1)[C@@H](C)O)[C@@H](C)O)C(C)C)C(=O)N[C@@H](C)C(=O)N[C@@H](Cc1c[nH]c2ccccc12)C(=O)N[C@@H](CC(C)C)C(=O)N[C@H](C(=O)N[C@@H](CCCNC(=N)N)C(=O)NCC(=O)N[C@@H](CCCCNC(=O)COCCOCCNC(=O)COCCOCCNC(=O)CC[C@H](NC(=O)CCCCCCCCCCCCC(=O)O)C(=O)O)C(=O)N[C@@H](CCCCNC(=O)COCCOCCNC(=O)COCCOCCNC(=O)CC[C@H](NC(=O)CCCCCCCCCCCCC(=O)O)C(=O)O)C(=O)O)C(C)C` [Example 5, N{Epsilon-36}-[2-[2-[2-[[2-[2-[2-[[(4S)-4-carboxy-4-(13-carboxytridecanoylamino)butanoyl]amino]ethoxy]ethoxy]acetyl]amino]ethoxy]ethoxy]acetyl], N{Epsilon-37}-[2-[2-[2-[[2-[2-[2-[[(4S)-4-carboxy-4-(13-carboxytridecanoylamino)butanoyl]amino]ethoxy]ethoxy]acetyl]amino]ethoxy]ethoxy]acetyl]-[Aib8,Glu22,Arg26,Arg34,Lys36,Lys37]-GLP-1-(7-37)-peptide], the EC50 on human GLP-1 receptor [1] (0% HSA, read-out: EC50/pM (0% HSA)) came out at 1.1 pM; on human GLP-1 receptor [1] (setting [6]), 22 pM. For the same molecule, the IC50 at human GLP-1 receptor [2] (read-out: IC50/nM (low HSA)) was found to be 0.2 nM. Besides, the half-life in data set [3] was 99 h.
On to `CC[C@H](C)[C@H](NC(=O)[C@H](Cc1ccccc1)NC(=O)[C@H](CCC(=O)O)NC(=O)[C@H](CCCNC(=N)N)NC(=O)[C@H](C)NC(=O)[C@H](C)NC(=O)[C@H](CCC(N)=O)NC(=O)[C@H](CCC(=O)O)NC(=O)[C@H](CCC(=O)O)NC(=O)[C@H](CC(C)C)NC(=O)[C@H](Cc1ccc(O)cc1)NC(=O)[C@H](CO)NC(=O)[C@H](CO)NC(=O)[C@@H](NC(=O)[C@H](CC(=O)O)NC(=O)[C@H](CO)NC(=O)[C@@H](NC(=O)[C@H](Cc1ccccc1)NC(=O)[C@@H](NC(=O)CNC(=O)[C@H](CCC(=O)O)NC(=O)C(C)(C)NC(=O)[C@@H](N)Cc1c[nH]cn1)[C@@H](C)O)[C@@H](C)O)C(C)C)C(=O)N[C@@H](C)C(=O)N[C@@H](Cc1c[nH]c2ccccc12)C(=O)N[C@@H](CC(C)C)C(=O)N[C@H](C(=O)N[C@@H](CCCNC(=N)N)C(=O)NCC(=O)N[C@@H](CCCCNC(=O)COCCOCCNC(=O)COCCOCCNC(=O)CC[C@H](NC(=O)CCCCCCCCCCCOc1ccc(C(=O)O)cc1)C(=O)O)C(=O)N[C@@H](CCCCNC(=O)COCCOCCNC(=O)COCCOCCNC(=O)CC[C@H](NC(=O)CCCCCCCCCCCOc1ccc(C(=O)O)cc1)C(=O)O)C(=O)O)C(C)C` [Example 26, N{Epsilon-36}-[2-[2-[2-[[2-[2-[2-[[(4S)-4-carboxy-4-[12-(4-carboxyphenoxy)dodecanoylamino]butanoyl]amino]ethoxy]ethoxy]acetyl]amino]ethoxy]ethoxy]acetyl], N{Epsilon-37}-[2-[2-[2-[[2-[2-[2-[[(4S)-4-carboxy-4-[12-(4-carboxyphenoxy)dodecanoylamino]butanoyl]amino]ethoxy]ethoxy]acetyl]amino]ethoxy]ethoxy]acetyl]-[Aib8,Glu22,Arg26,Arg34,Lys36,Lys37]-GLP-1-(7-37)-peptide], for which the EC50 on human GLP-1 receptor [1] (EC50/pM (0% HSA), 0% HSA) came out at 1.5 pM; at human GLP-1 receptor [1] (setting [6]), 124 pM. The IC50 on human GLP-1 receptor [2] (IC50/nM (low HSA)) stood at 0.29 nM.
For `CC[C@H](C)[C@H](NC(=O)[C@H](Cc1ccccc1)NC(=O)[C@H](CCC(=O)O)NC(=O)[C@H](CCCNC(=N)N)NC(=O)[C@H](C)NC(=O)[C@H](C)NC(=O)[C@H](CCC(N)=O)NC(=O)[C@H](CCC(=O)O)NC(=O)[C@H](CCC(=O)O)NC(=O)[C@H](CC(C)C)NC(=O)[C@H](Cc1ccc(O)cc1)NC(=O)[C@H](CO)NC(=O)[C@H](CO)NC(=O)[C@@H](NC(=O)[C@H](CC(=O)O)NC(=O)[C@H](CO)NC(=O)[C@@H](NC(=O)[C@H](Cc1ccccc1)NC(=O)[C@@H](NC(=O)CNC(=O)[C@H](CCC(=O)O)NC(=O)C(C)(C)NC(=O)[C@@H](N)Cc1c[nH]cn1)[C@@H](C)O)[C@@H](C)O)C(C)C)C(=O)N[C@@H](C)C(=O)N[C@@H](Cc1c[nH]c2ccccc12)C(=O)N[C@@H](CC(C)C)C(=O)N[C@H](C(=O)N[C@@H](CCCNC(=N)N)C(=O)NCC(=O)N[C@@H](CCCCNC(=O)COCCOCCNC(=O)COCCOCCNC(=O)CC[C@H](NC(=O)CCCCCCCCOc1cccc(C(=O)O)c1)C(=O)O)C(=O)N[C@@H](CCCCNC(=O)COCCOCCNC(=O)COCCOCCNC(=O)CC[C@H](NC(=O)CCCCCCCCOc1cccc(C(=O)O)c1)C(=O)O)C(=O)O)C(C)C` [Example 23, N{Epsilon-36}-[2-[2-[2-[[2-[2-[2-[[(4S)-4-carboxy-4-[9-(3-carboxyphenoxy)nonanoylamino]butanoyl]amino]ethoxy]ethoxy]acetyl]amino]ethoxy]ethoxy]acetyl], N{Epsilon-37}-[2-[2-[2-[[2-[2-[2-[[(4S)-4-carboxy-4-[9-(3-carboxyphenoxy)nonanoylamino]butanoyl]amino]ethoxy]ethoxy]acetyl]amino]ethoxy]ethoxy]acetyl]-[Aib8,Glu22,Arg26,Arg34,Lys36,Lys37]-GLP-1-(7-37)-peptide], in that order: 7.7 pM, 15 pM and 0.29 nM.
In the data set with human GLP-1 receptor [4], H[Aib]EGTFTSDVSSYLEEQAAREFIAWLVQGK([AEEA-AEEA-γGlu-Undecanoyl(11-OPh(4-COOH))])K([AEEA-AEEA-γGlu-Undecanoyl(11-OPh(4-COOH))]) [GLP-1 derivative of Example 7] came in with an EC50/pM (0% HSA) of 1.5 pM and an EC50/pM (1% HSA) of 143 pM. For the same molecule, in the data set with human GLP-1 receptor [5], the IC50 was determined as 233 nM.
In the data set with human GLP-1 receptor [4], H[Aib]EGTFTSDVSSYLEEQAAREFIAWLVRGK([AEEA-AEEA-γGlu-Dodecanoyl(12-OPh(4-COOH))])K([AEEA-AEEA-γGlu-Dodecanoyl(12-OPh(4-COOH))]) [GLP-1 derivative of Example 26] gave an EC50/pM (0% HSA) of 1.5 pM and an EC50/pM (1% HSA) of 124 pM. The molecule further returned an IC50 with human GLP-1 receptor [5] of 360 nM.
For H[Aib]EGTFTSDVSSYLEEQAAREFIEWLVRGK([AEEA-AEEA-AEEA-AEEA-γGlu-Decanoyl(10-O(3-COOH-Ph))])K([AEEA-AEEA-AEEA-AEEA-γGlu-Decanoyl(10-O(3-COOH-Ph))]) [GLP-1 derivative of Example 28], in that order: 12 pM, 25 pM and 173 nM.
In the case of H[Aib]EGTFTSDVSSYLEEQAAREFIAWLVRGK([AEEA-AEEA-γGlu-Decanoyl(10-(4-HOOC-PhO))])K([AEEA-AEEA-γGlu-Decanoyl(10-(4-HOOC-PhO))]) [GLP-1 derivative of Example 3], in the data set with human GLP-1 receptor [4], the EC50/pM (0% HSA) came out at 1.2 pM and the EC50/pM (1% HSA) was determined as 28 pM. In the data set with human GLP-1 receptor [5], this molecule showed an IC50 of 77 nM.
In the data set with human GLP-1 receptor [4], H[Aib]EGTFTSDVSSYLEEQAAREFIAWLVRGK([AEEA-AEEA-AEEA-γGlu-C14 diacid])K([AEEA-AEEA-AEEA-γGlu-C14 diacid]) [GLP-1 derivative of Example 12] returned an EC50/pM (0% HSA) of 1.2 pM and an EC50/pM (1% HSA) of 10 pM. In the data set with human GLP-1 receptor [5], this molecule came in with an IC50 of 70 nM.
As to H[Aib]EGTFTSDVSSYLEEQAAREFIAWLVRGK([AEEA-AEEA-γGlu-C14 diacid])K([AEEA-AEEA-γGlu-C14 diacid]) [GLP-1 derivative of Example 5], in the data set with human GLP-1 receptor [4], the EC50/pM (0% HSA) came out at 1.1 pM and the EC50/pM (1% HSA) came to 22 pM. The same molecule showed an IC50 in the data set with human GLP-1 receptor [5] of 144 nM.
In the data set with human GLP-1 receptor [4], H[Aib]EGTFTSDVSSYLEEQAAREFIAWLVRGK([AEEA-γGlu-γGlu-C14 diacid])K([AEEA-γGlu-γGlu-C14 diacid]) [GLP-1 derivative of Example 13] gave an EC50/pM (0% HSA) of 1.3 pM and an EC50/pM (1% HSA) of 18 pM. For the same molecule, the IC50 with human GLP-1 receptor [5] is 201 nM.
Taken in the same sequence, the figures for H[Aib]EGTFTSDVSSYLEEQAAREFIAWLVRGK([AEEA-AEEA-γGlu-9‑(3-carboxyphenoxy)nonanoyl])K([AEEA-AEEA-γGlu-9‑(3-carboxyphenoxy)nonanoyl]) [GLP-1 derivative of Example 23] were 7.7 pM, 15 pM and 193 nM.
